# ± gives the uncertainty stated by the source.
# Test: self-splicing fitness, log relative to wild type (ln ratio); higher = more splicing; Tetrahymena group I intron in knt gene, E. coli kanamycin selection, DiMSum; sequences stand for … in CUCUCU…GGAGGGAAAAGUUAUCAGGCAUGCACCUGGUAGCUAGUCUUUAAACCAAUAGAUUGCAUCGGUUUAAAAGGCAAGACCGUCAAAUUGCGGGAAAGGGGUCAACAGCCGUUCAGUACCAAGUCUCAGGGGAAACUUUGAGAUGGCCUUGCAAAGGGUAUGGUAAUAAGCUGACGGACAUGGUCCUAACCACGCAGCCAAGUCCUAAGUCAACAGAUCUUCUGUUGAUAUGGAUGCAGUUCACAGACUAAAUGUCGGUCGGGGAAGAUGUAUUCUUCUCAUAAGAUAUAGUCGGACCUCUCCUUAAUGGGAGCUAGCGGAUGAAGUGAUGCAACACUGGAGCCGCUGGGAACUAAUUUGUAUGCGAAAGUAUAUUGAUUAGUUUUGGAGUACUCGUGGUCG
# Procedure, shortened: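 A randomised library covering all eight P1ex-region intron nucleotides was built with the intron in the knt kanamycin-resistance gene on pET-22b(+) and held in E. coli BL21(DE3). Cells were grown overnight at 37°C or 30°C on LB agar, with or without 25 μg/mL kanamycin, plus 100 μg/mL carbenicillin, 50 μM IPTG and 0.2% rhamnose, and pooled colonies were amplicon-sequenced on an Illumina HiSeq 2500. DiMSum fitness is the error-weighted combination of wild-type-normalised replicate fold changes, kanamycin versus none.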
Sequence,self-splicing fitness (ln) (30 °C),self-splicing fitness (ln) (37 °C)
AAGUAGCAAUAUUACGGAUG,-3.53 ± 0.39,-1.76 ± 0.17
AUUUAGCAAUAUUACGAGUG,-2.59 ± 0.18,-0.743 ± 0.18
CUCUAGCAAUAUUACGAGCA,-3.95 ± 0.33,-3.04 ± 0.23
UUACAGCAAUAUUACGUCUG,-1.59 ± 0.13,-1.07 ± 0.12
AUUGAGCAAUAUUACGGGGG,-4.39 ± 0.46,-3.19 ± 0.31
CUGUAGCAAUAUUACGCGAC,-2.56 ± 0.2,-2.41 ± 0.28
GGGUAGCAAUAUUACGAGGG,-3.42 ± 0.33,-2.55 ± 0.33
GUUCAGCAAUAUUACGAGCA,–,-1.75 ± 0.3
GUCAAGCAAUAUUACGUUAU,-2.02 ± 0.088,-1.15 ± 0.09
AGACAGCAAUAUUACGCUUG,-2.71 ± 0.13,-1 ± 0.12
ACUUAGCAAUAUUACGUACU,-0.497 ± 0.094,-0.384 ± 0.1
GACAAGCAAUAUUACGCAUC,-4.33 ± 0.28,-3.91 ± 0.42
UACCAGCAAUAUUACGGAAC,-3.57 ± 0.44,-3.27 ± 0.27
AUCUAGCAAUAUUACGGUGU,-2.17 ± 0.076,-0.462 ± 0.081
UAUAAGCAAUAUUACGAGAG,-3.52 ± 0.38,-2.52 ± 0.27
CGACAGCAAUAUUACGGGGC,-3.72 ± 0.29,-2.87 ± 0.29
GACUAGCAAUAUUACGCCCG,-1.77 ± 0.24,-0.58 ± 0.28
CGCCAGCAAUAUUACGUGGA,-3.6 ± 0.2,-2 ± 0.15
GCCGAGCAAUAUUACGUACC,-2.15 ± 0.13,-0.678 ± 0.16
GCAGAGCAAUAUUACGGGAC,-3.3 ± 0.14,-1.65 ± 0.11
GGGAAGCAAUAUUACGUAGG,-3.64 ± 0.32,-0.93 ± 0.11

Sequence,self-splicing fitness (ln) (30 °C),self-splicing fitness (ln) (37 °C)
GUUAAGCAAUAUUACGCAAG,-1.84 ± 0.18,-1.71 ± 0.23
CCGCAGCAAUAUUACGCGUA,-2.58 ± 0.16,-0.978 ± 0.11
AAGUAGCAAUAUUACGAGGG,-3.71 ± 0.24,-3.29 ± 0.28
GGUAAGCAAUAUUACGAACG,-0.0623 ± 0.11,-0.0489 ± 0.12
GUAAAGCAAUAUUACGGUGU,-1.5 ± 0.056,-0.647 ± 0.07
AGAUAGCAAUAUUACGUAAA,-2.53 ± 0.17,-1.74 ± 0.14
CGCAAGCAAUAUUACGUUUC,-2.92 ± 0.16,-2.21 ± 0.23
ACGUAGCAAUAUUACGCAAU,-2.95 ± 0.17,-1.53 ± 0.22
AUACAGCAAUAUUACGUUAU,-3.44 ± 0.13,-2.04 ± 0.1
UGGCAGCAAUAUUACGCAUU,-1.05 ± 0.097,-0.267 ± 0.089
CGAGAGCAAUAUUACGGGAG,-2.83 ± 0.16,-0.597 ± 0.16
AAUGAGCAAUAUUACGCGCA,-2.54 ± 0.34,-1.76 ± 0.49
GUGCAGCAAUAUUACGCUGG,-2.41 ± 0.12,-1.09 ± 0.13
CGUCAGCAAUAUUACGGUCG,-2.52 ± 0.11,-2 ± 0.15
GCCAAGCAAUAUUACGCCCA,-1.18 ± 0.1,-0.6 ± 0.12
GCCAAGCAAUAUUACGGCAG,-3.71 ± 0.19,-2.54 ± 0.23
AUUGAGCAAUAUUACGAUUU,-1.11 ± 0.09,-0.383 ± 0.11
ACCGAGCAAUAUUACGCCAU,-4.46 ± 0.36,-2.05 ± 0.22
ACAUAGCAAUAUUACGAGCA,-2.89 ± 0.12,-1.1 ± 0.11
GCCUAGCAAUAUUACGUAUA,-3.04 ± 0.25,-1.63 ± 0.15
CGUUAGCAAUAUUACGCCAG,-0.657 ± 0.22,0.474 ± 0.35

# Reference: the supplement of paper PMC7877785
